Data published in patent US20240384250A1, “FIBROBLAST GROWTH FACTOR 23 MODULATING COMPOUNDS” (THE UAB RESEARCH FOUNDATION, priority 2021, published 2024).

Legend:
Assay in all cases: Pull-down of FLAG-sKL with Fc-tagged FGFR on protein A/G beads, absence of FGF23
Assay type in all cases: binding
FGFR1c = molecular target: T1, FGFR1c (Homo sapiens, UniProt P11362)
T1 construct: Fc-coupled FGFR ectodomains were immobilized on protein A/G beads; purchased R&D Systems 658FR050
T1 sequence (P11362 22-376 limits assumed): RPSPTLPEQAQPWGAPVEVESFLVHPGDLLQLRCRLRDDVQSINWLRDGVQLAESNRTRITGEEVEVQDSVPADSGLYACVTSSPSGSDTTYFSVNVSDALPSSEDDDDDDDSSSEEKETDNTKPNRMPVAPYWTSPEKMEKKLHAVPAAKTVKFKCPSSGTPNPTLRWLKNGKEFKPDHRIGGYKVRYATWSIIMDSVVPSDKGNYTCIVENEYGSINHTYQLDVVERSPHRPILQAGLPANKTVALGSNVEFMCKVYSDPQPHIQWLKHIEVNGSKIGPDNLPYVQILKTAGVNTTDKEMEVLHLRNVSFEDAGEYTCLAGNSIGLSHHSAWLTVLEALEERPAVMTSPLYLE
Procedure: (§1) To study the interaction between Fc-tagged FGFR isoforms (Fc-FGFR), FGF isoforms, and sKL, immunoprecipitation studies were conducted. Protein A beads (6501, BioVision) and protein G beads (6511, BioVision) were used at 25 μl of a 50% stock slurry per sample in a total bead volume of 50 μl. Beads were washed 5× in activity buffer (50 mM Tris [pH 7.4], 200 mM NaCl, 0.01% Tween 20). Bead spin-down assays were all performed for 2 minutes at 5000 g. Beads were resuspended in 1 ml of activity buffer in a 1.5-ml snap cap tube. One microgram of Fc-FGFR1 to 4 was incubated with the beads for 1 hour on a bead rotator. Control samples were incubated with 2 μg of anti-FGF antibody instead of Fc-FGFR. Beads were then pelleted at 5000 g for 2 minutes and washed 5× with activity buffer. Beads were resuspended and incubated with different combinations of 500 ng of FGF, 1 μg of sKL, 1.6 United States Pharmacopeia (USP) units of heparin, or phosphate-buffered saline (PBS). Beads were incubated for 1 hour on a tube rotator, and beads were pelleted and washed as before. One hundred microliters of 1× Laemmli sample buffer (1610737, Bio-Rad) with 1.42 M 2-mercaptoethanol was added, and samples were boiled for 5 minutes. Samples were analyzed using SDS-PAGE and Western blotting.
(§2) The sample (20 μl) was loaded onto Mini-PROTEAN TGX Precast Gel 4-20% for experiments with <9 samples (4568094, Bio-Rad) or Criterion TGX Precast Gel 4-20% (5678094, Bio-Rad) for experiments with >9 samples. Gels were run in 1× Tris/Glycine/SDS buffer (1610732, Bio-Rad) at 150 V and stopped when the sample dye reached the end of the gel. Gels were removed and electrotransferred via a semi-dry cassette (1703940, Bio-Rad) in I× Tris/Glycine buffer (1610734, Bio-Rad) with 20% methanol. Gels were transferred onto polyvinylidene diflouride membranes (IPVH00010, Millipore) at 20 V for 1 hour. Membranes were then blocked in 5% dried milk with 0.5% Tween 20 diluted in Tris-buffered saline (TBST; pH 7.5) for 1 hour and probed with antibodies against specific antigens at 1:1000 in TBST with 5% dried milk. Blots were washed 3× for 5 minutes in TBST and probed with HRP-coupled secondary antibodies against specific species at 1:10,000 in TBST with 5% dried milk. Membranes were imaged on the SRX-101A X-ray film developer (Konica Minolta).

FGFR3c = molecular target: T2, FGFR3c (Homo sapiens, UniProt P22607)
T2 construct: Fc-coupled FGFR ectodomains were immobilized on protein A/G beads; purchased R&D Systems 766FR050
T2 sequence (P22607 23-375 limits assumed): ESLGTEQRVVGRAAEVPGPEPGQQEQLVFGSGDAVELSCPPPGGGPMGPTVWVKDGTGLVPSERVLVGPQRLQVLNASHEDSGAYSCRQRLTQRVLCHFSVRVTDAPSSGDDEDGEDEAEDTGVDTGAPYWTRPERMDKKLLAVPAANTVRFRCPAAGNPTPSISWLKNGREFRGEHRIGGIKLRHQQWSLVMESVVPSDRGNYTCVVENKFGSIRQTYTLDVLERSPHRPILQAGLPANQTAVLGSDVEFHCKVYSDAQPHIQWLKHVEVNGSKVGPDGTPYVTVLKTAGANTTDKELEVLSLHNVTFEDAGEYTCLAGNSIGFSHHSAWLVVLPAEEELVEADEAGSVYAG
Procedure: as §1, §2

FGFR2c = molecular target: T3, FGFR2c (Homo sapiens, UniProt P21802)
T3 construct: Fc-coupled FGFR ectodomains were immobilized on protein A/G beads; purchased R&D Systems 712FR050
Procedure: as §1, §2

T3 sequence (P21802 22-377 limits assumed): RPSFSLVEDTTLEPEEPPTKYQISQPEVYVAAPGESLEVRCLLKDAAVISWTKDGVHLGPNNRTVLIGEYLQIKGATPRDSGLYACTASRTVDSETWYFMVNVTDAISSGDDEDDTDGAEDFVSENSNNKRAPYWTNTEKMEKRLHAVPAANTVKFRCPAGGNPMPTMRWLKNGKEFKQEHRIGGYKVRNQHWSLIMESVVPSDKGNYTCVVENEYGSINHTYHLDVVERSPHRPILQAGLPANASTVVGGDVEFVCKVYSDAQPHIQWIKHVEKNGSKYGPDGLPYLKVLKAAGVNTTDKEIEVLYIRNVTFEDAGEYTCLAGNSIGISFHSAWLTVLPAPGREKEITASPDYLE

- co-precipitation of FLAG-sKL with FGFR1c (FGFR1c): could be co-precipitated with FGFR1c
- sKL binding to FGFR3c (FGFR3c): no sKL binding
- sKL binding to FGFR2c (FGFR2c): no sKL binding
B1: sKL: recombinant soluble α-klotho ectodomain, mouse aa 35-982 and human aa 34-981, FLAG- or Strep/His-tagged, purified from HEK293 cells (protein)
chain: EPGDGAQTWARFSRPPAPEAAGLFQGTFPDGFLWAVGSAAYQTEGGWQQHGKGASIWDTFTHHPLAPPGDSRNASLPLGAPSPLQPATGDVASDSYNNVFRDTEALRELGVTHYRFSISWARVLPNGSAGVPNREGLRYYRRLLERLRELGVQPVVTLYHWDLPQRLQDAYGGWANRALADHFRDYAELCFRHFGGQVKYWITIDNPYVVAWHGYATGRLAPGIRGSPRLGYLVAHNLLLAHAKVWHLYNTSFRPTQGGQVSIALSSHWINPRRMTDHSIKECQKSLDFVLGWFAKPVFIDGDYPESMKNNLSSILPDFTESEKKFIKGTADFFALCFGPTLSFQLLDPHMKFRQLESPNLRQLLSWIDLEFNHPQIFIVENGWFVSGTTKRDDAKYMYYLKKFIMETLKAIKLDGVDVIGYTAWSLMDGFEWHRGYSIRRGLFYVDFLSQDKMLLPKSSALFYQKLIEKNGFPPLPENQPLEGTFPCDFAWGVVDNYIQVDTTLSQFTDLNVYLWDVHHSKRLIKVDGVVTKKRKSYCVDFAAIQPQIALLQEMHVTHFRFSLDWALILPLGNQSQVNHTILQYYRCMASELVRVNITPVVALWQPMAPNQGLPRLLARQGAWENPYTALAFAEYARLCFQELGHHVKLWITMNEPYTRNMTYSAGHNLLKAHALAWHVYNEKFRHAQNGKISIALQADWIEPACPFSQKDKEVAERVLEFDIGWLAEPIFGSGDYPWVMRDWLNQRNNFLLPYFTEDEKKLIQGTFDFLALSHYTTILVDSEKEDPIKYNDYLEVQEMTDITWLNSPSQVAVVPWGLRKVLNWLKFKYGDLPMYIISNGIDDGLHAEDDQLRVYYMQNYINEALKAHILDGINLCGYFAYSFNDRTAPRFGLYRYAADQFEPKASMKHYRKIIDSNGFPGPETLERFCPEEFTVCTECSFFHTRKS
modifications: left off: small tags and cut ends
notes: recombinant soluble α-klotho ectodomain, mouse aa 35-982 and human aa 34-981, FLAG- or Strep/His-tagged, purified from HEK293 cells
